T1: cyno TfR extracellular domain (analogous construct to human TfR ecd) (cynomolgus monkey, UniProt Q5RDH6 87-760 (Pongo abelii entry))
T1 construct: also called cynoTfR ecd
T1 chain: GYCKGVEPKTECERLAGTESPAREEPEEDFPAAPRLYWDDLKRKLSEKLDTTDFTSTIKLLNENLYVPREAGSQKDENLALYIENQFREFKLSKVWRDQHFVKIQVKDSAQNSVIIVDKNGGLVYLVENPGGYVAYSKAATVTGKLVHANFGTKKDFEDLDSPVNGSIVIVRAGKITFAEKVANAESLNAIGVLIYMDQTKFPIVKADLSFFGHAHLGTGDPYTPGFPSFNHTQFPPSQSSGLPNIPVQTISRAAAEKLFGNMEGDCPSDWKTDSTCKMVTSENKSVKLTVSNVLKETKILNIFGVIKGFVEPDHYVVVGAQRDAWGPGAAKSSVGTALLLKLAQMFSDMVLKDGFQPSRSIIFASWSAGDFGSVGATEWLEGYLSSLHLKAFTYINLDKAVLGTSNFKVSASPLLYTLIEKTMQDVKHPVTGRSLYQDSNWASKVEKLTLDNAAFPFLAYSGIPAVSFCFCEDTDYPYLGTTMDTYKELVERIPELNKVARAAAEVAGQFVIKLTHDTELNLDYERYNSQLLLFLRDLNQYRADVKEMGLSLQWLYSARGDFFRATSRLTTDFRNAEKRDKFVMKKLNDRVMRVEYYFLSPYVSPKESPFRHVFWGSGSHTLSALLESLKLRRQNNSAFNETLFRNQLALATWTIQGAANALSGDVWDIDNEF


Experiments:
[1] = target: T2, human TfR extracellular domain with N-terminal His tag (human, UniProt P02786 89-760); experiment: ELISA, TfR-coated plate, IgG in culture supernatant;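 note: human or cynomolgus TfR coated at 2 µg/mL, supernatant IgG titrated in 1:5 steps for 1 h, bound antibody read with HRP anti-human Fcγ and TMB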
T2 construct: Biotinylated in some assays; also called huTfR; HuTfR
Description: (§1) The Hu/Cy binding ELISA was performed in maxisorp plates coated with 2 μg/ml of purified human or cyno TfR in PBS at 4° C. overnight. Plates were washed with PBS/0.05% Tween 20 and blocked using Superblock blocking buffer in PBS (Thermo Scientific, Hudson, N.H.). Cell culture supernatants containing the expressed Ala scan variant IgGs were serially diluted 1:5 and added to the wells for 1 h. Plates were washed with PBS/0.05% Tween 20 and 1:1000 diluted HRP-Goat-anti human Fcγ (Jackson ImmunoResearch) was added the plate and incubated for 1 hour at room temperature. Plates were washed with PBS/0.05% Tween 20 and detected using TMB substrate (BioFX Laboratories, Owings Mills).

[2] = target: T1, cyno TfR extracellular domain …; experiment: as above
Description: as §1

| Binder | EC50 [1] [ng/mL] | EC50 [2] [ng/mL] |
| --- | --- | --- |
| hu15G11.v5 IgG Ala variant M34A (HVR-H1) (antibody, name in Kabat numbering, V domains shown, IgG in cell culture supernatant) VH: EVQLVQSGAEVKKPGASVKVSCKASGYTFTSYWAHWVRQAPGQRLEWIGEINPTNGRTNYIEKFKSRATLTVDKSASTAYMELSSLRSEDTAVYYCARGTRAYHYWGQGTMVTVSS VL: DIQMTQSPSSLSASVGDRVTITCRASDNLYSNLAWYQQKPGKSPKLLVYDATNLADGVPSRFSGSGSGTDYTLTISSLQPEDFATYYCQHFWGTPLTFGQGTKVEIK | 0.4 | 1.1 |
| hu15G11.v5 IgG Ala variant T28A (HVR-H1) (antibody, name in Kabat numbering, V domains shown, IgG in cell culture supernatant) VH: EVQLVQSGAEVKKPGASVKVSCKASGYAFTSYWMHWVRQAPGQRLEWIGEINPTNGRTNYIEKFKSRATLTVDKSASTAYMELSSLRSEDTAVYYCARGTRAYHYWGQGTMVTVSS VL: DIQMTQSPSSLSASVGDRVTITCRASDNLYSNLAWYQQKPGKSPKLLVYDATNLADGVPSRFSGSGSGTDYTLTISSLQPEDFATYYCQHFWGTPLTFGQGTKVEIK | 0.4 | 0.8 |
| hu15G11.v5 IgG Ala variant N58A (HVR-H2) (antibody, name in Kabat numbering, V domains shown, IgG in cell culture supernatant; Kabat numbers after 52a lie one below the linear count) VH: EVQLVQSGAEVKKPGASVKVSCKASGYTFTSYWMHWVRQAPGQRLEWIGEINPTNGRTAYIEKFKSRATLTVDKSASTAYMELSSLRSEDTAVYYCARGTRAYHYWGQGTMVTVSS VL: DIQMTQSPSSLSASVGDRVTITCRASDNLYSNLAWYQQKPGKSPKLLVYDATNLADGVPSRFSGSGSGTDYTLTISSLQPEDFATYYCQHFWGTPLTFGQGTKVEIK | 6.3 | 80.4 |
| hu15G11.v5 IgG Ala variant Y30A (HVR-L1) (antibody, V domains shown, IgG in cell culture supernatant) VH: EVQLVQSGAEVKKPGASVKVSCKASGYTFTSYWMHWVRQAPGQRLEWIGEINPTNGRTNYIEKFKSRATLTVDKSASTAYMELSSLRSEDTAVYYCARGTRAYHYWGQGTMVTVSS VL: DIQMTQSPSSLSASVGDRVTITCRASDNLASNLAWYQQKPGKSPKLLVYDATNLADGVPSRFSGSGSGTDYTLTISSLQPEDFATYYCQHFWGTPLTFGQGTKVEIK | 0.3 | 1 |
| hu15G11.v5 IgG Ala variant R24A (HVR-L1) (antibody, V domains shown, IgG in cell culture supernatant) VH: EVQLVQSGAEVKKPGASVKVSCKASGYTFTSYWMHWVRQAPGQRLEWIGEINPTNGRTNYIEKFKSRATLTVDKSASTAYMELSSLRSEDTAVYYCARGTRAYHYWGQGTMVTVSS VL: DIQMTQSPSSLSASVGDRVTITCAASDNLYSNLAWYQQKPGKSPKLLVYDATNLADGVPSRFSGSGSGTDYTLTISSLQPEDFATYYCQHFWGTPLTFGQGTKVEIK | 0.1 | 0.4 |
| hu15G11.v5 IgG Ala variant N52A (HVR-H2) (antibody, V domains shown, IgG in cell culture supernatant; also called 15G11.N52A; 15G11.52A) VH: EVQLVQSGAEVKKPGASVKVSCKASGYTFTSYWMHWVRQAPGQRLEWIGEIAPTNGRTNYIEKFKSRATLTVDKSASTAYMELSSLRSEDTAVYYCARGTRAYHYWGQGTMVTVSS VL: DIQMTQSPSSLSASVGDRVTITCRASDNLYSNLAWYQQKPGKSPKLLVYDATNLADGVPSRFSGSGSGTDYTLTISSLQPEDFATYYCQHFWGTPLTFGQGTKVEIK | 0.3 | 0.9 |
| hu15G11.v5 IgG Ala variant P52aA (HVR-H2) (antibody, name in Kabat numbering, V domains shown, IgG in cell culture supernatant) VH: EVQLVQSGAEVKKPGASVKVSCKASGYTFTSYWMHWVRQAPGQRLEWIGEINATNGRTNYIEKFKSRATLTVDKSASTAYMELSSLRSEDTAVYYCARGTRAYHYWGQGTMVTVSS VL: DIQMTQSPSSLSASVGDRVTITCRASDNLYSNLAWYQQKPGKSPKLLVYDATNLADGVPSRFSGSGSGTDYTLTISSLQPEDFATYYCQHFWGTPLTFGQGTKVEIK | 3.9 | 8.1 |
| hu15G11.v5 IgG Ala variant T52A (HVR-L2) (antibody, V domains shown, IgG in cell culture supernatant) VH: EVQLVQSGAEVKKPGASVKVSCKASGYTFTSYWMHWVRQAPGQRLEWIGEINPTNGRTNYIEKFKSRATLTVDKSASTAYMELSSLRSEDTAVYYCARGTRAYHYWGQGTMVTVSS VL: DIQMTQSPSSLSASVGDRVTITCRASDNLYSNLAWYQQKPGKSPKLLVYDAANLADGVPSRFSGSGSGTDYTLTISSLQPEDFATYYCQHFWGTPLTFGQGTKVEIK | 0.2 | 0.3 |
| hu15G11.v5 IgG Ala variant S26A (HVR-L1) (antibody, V domains shown, IgG in cell culture supernatant) VH: EVQLVQSGAEVKKPGASVKVSCKASGYTFTSYWMHWVRQAPGQRLEWIGEINPTNGRTNYIEKFKSRATLTVDKSASTAYMELSSLRSEDTAVYYCARGTRAYHYWGQGTMVTVSS VL: DIQMTQSPSSLSASVGDRVTITCRAADNLYSNLAWYQQKPGKSPKLLVYDATNLADGVPSRFSGSGSGTDYTLTISSLQPEDFATYYCQHFWGTPLTFGQGTKVEIK | 0.2 | 0.6 |
| hu15G11.v5 IgG Ala variant T53A (HVR-H2) (antibody, V domains shown, IgG in cell culture supernatant; also called 15G11.T53A; 15G11.53A) VH: EVQLVQSGAEVKKPGASVKVSCKASGYTFTSYWMHWVRQAPGQRLEWIGEINPANGRTNYIEKFKSRATLTVDKSASTAYMELSSLRSEDTAVYYCARGTRAYHYWGQGTMVTVSS VL: DIQMTQSPSSLSASVGDRVTITCRASDNLYSNLAWYQQKPGKSPKLLVYDATNLADGVPSRFSGSGSGTDYTLTISSLQPEDFATYYCQHFWGTPLTFGQGTKVEIK | 0.3 | 0.7 |
| hu15G11.v5 IgG Ala variant T30A (HVR-H1) (antibody, name in Kabat numbering, V domains shown, IgG in cell culture supernatant) VH: EVQLVQSGAEVKKPGASVKVSCKASGYTFASYWMHWVRQAPGQRLEWIGEINPTNGRTNYIEKFKSRATLTVDKSASTAYMELSSLRSEDTAVYYCARGTRAYHYWGQGTMVTVSS VL: DIQMTQSPSSLSASVGDRVTITCRASDNLYSNLAWYQQKPGKSPKLLVYDATNLADGVPSRFSGSGSGTDYTLTISSLQPEDFATYYCQHFWGTPLTFGQGTKVEIK | 0.4 | 0.9 |
| hu15G11.v5 IgG Ala variant R56A (HVR-H2) (antibody, name in Kabat numbering, V domains shown, IgG in cell culture supernatant; Kabat numbers after 52a lie one below the linear count) VH: EVQLVQSGAEVKKPGASVKVSCKASGYTFTSYWMHWVRQAPGQRLEWIGEINPTNGATNYIEKFKSRATLTVDKSASTAYMELSSLRSEDTAVYYCARGTRAYHYWGQGTMVTVSS VL: DIQMTQSPSSLSASVGDRVTITCRASDNLYSNLAWYQQKPGKSPKLLVYDATNLADGVPSRFSGSGSGTDYTLTISSLQPEDFATYYCQHFWGTPLTFGQGTKVEIK | 55.1 | 5410 |
| hu15G11.v5 IgG Ala variant N28A (HVR-L1) (antibody, V domains shown, IgG in cell culture supernatant) VH: EVQLVQSGAEVKKPGASVKVSCKASGYTFTSYWMHWVRQAPGQRLEWIGEINPTNGRTNYIEKFKSRATLTVDKSASTAYMELSSLRSEDTAVYYCARGTRAYHYWGQGTMVTVSS VL: DIQMTQSPSSLSASVGDRVTITCRASDALYSNLAWYQQKPGKSPKLLVYDATNLADGVPSRFSGSGSGTDYTLTISSLQPEDFATYYCQHFWGTPLTFGQGTKVEIK | 0.2 | 0.8 |
| hu15G11.v5 IgG Ala variant S31A (HVR-L1) (antibody, V domains shown, IgG in cell culture supernatant; also called S31A (light chain)) VH: EVQLVQSGAEVKKPGASVKVSCKASGYTFTSYWMHWVRQAPGQRLEWIGEINPTNGRTNYIEKFKSRATLTVDKSASTAYMELSSLRSEDTAVYYCARGTRAYHYWGQGTMVTVSS VL: DIQMTQSPSSLSASVGDRVTITCRASDNLYANLAWYQQKPGKSPKLLVYDATNLADGVPSRFSGSGSGTDYTLTISSLQPEDFATYYCQHFWGTPLTFGQGTKVEIK | 0.3 | 0.7 |
| hu15G11.v5 IgG Ala variant N32A (HVR-L1) (antibody, V domains shown, IgG in cell culture supernatant) VH: EVQLVQSGAEVKKPGASVKVSCKASGYTFTSYWMHWVRQAPGQRLEWIGEINPTNGRTNYIEKFKSRATLTVDKSASTAYMELSSLRSEDTAVYYCARGTRAYHYWGQGTMVTVSS VL: DIQMTQSPSSLSASVGDRVTITCRASDNLYSALAWYQQKPGKSPKLLVYDATNLADGVPSRFSGSGSGTDYTLTISSLQPEDFATYYCQHFWGTPLTFGQGTKVEIK | 1.6 | 4 |
| hu15G11.v5 IgG Ala variant S31A (HVR-H1) (antibody, name in Kabat numbering, V domains shown, IgG in cell culture supernatant; also called S31A (heavy chain)) VH: EVQLVQSGAEVKKPGASVKVSCKASGYTFTAYWMHWVRQAPGQRLEWIGEINPTNGRTNYIEKFKSRATLTVDKSASTAYMELSSLRSEDTAVYYCARGTRAYHYWGQGTMVTVSS VL: DIQMTQSPSSLSASVGDRVTITCRASDNLYSNLAWYQQKPGKSPKLLVYDATNLADGVPSRFSGSGSGTDYTLTISSLQPEDFATYYCQHFWGTPLTFGQGTKVEIK | 0.05 | 0.1 |
| hu15G11.v5 IgG Ala variant S65A (HVR-H2) (antibody, name in Kabat numbering, V domains shown, IgG in cell culture supernatant; Kabat numbers after 52a lie one below the linear count) VH: EVQLVQSGAEVKKPGASVKVSCKASGYTFTSYWMHWVRQAPGQRLEWIGEINPTNGRTNYIEKFKARATLTVDKSASTAYMELSSLRSEDTAVYYCARGTRAYHYWGQGTMVTVSS VL: DIQMTQSPSSLSASVGDRVTITCRASDNLYSNLAWYQQKPGKSPKLLVYDATNLADGVPSRFSGSGSGTDYTLTISSLQPEDFATYYCQHFWGTPLTFGQGTKVEIK | 0.2 | 0.7 |
| hu15G11.v5 IgG Ala variant N53A (HVR-L2) (antibody, V domains shown, IgG in cell culture supernatant) VH: EVQLVQSGAEVKKPGASVKVSCKASGYTFTSYWMHWVRQAPGQRLEWIGEINPTNGRTNYIEKFKSRATLTVDKSASTAYMELSSLRSEDTAVYYCARGTRAYHYWGQGTMVTVSS VL: DIQMTQSPSSLSASVGDRVTITCRASDNLYSNLAWYQQKPGKSPKLLVYDATALADGVPSRFSGSGSGTDYTLTISSLQPEDFATYYCQHFWGTPLTFGQGTKVEIK | 0.3 | 0.6 |

Source: US20180057604A1 (Genentech, published 2018)
